Data published in patent US10502741B2, “Means and methods for detecting activated MALT1” (Helmholtz Zentrum München Deutsches Forschungszentrum für …, priority 2014, dated 2019).

Target: T1, active MALT1 (Homo sapiens, UniProt Q9UDY8)
T1 construct: endogenous in cells; host or cells: Jurkat T cells, primary human PBMCs and T cells, DLBCL cell lines (HBL1, TMD8, OCI-Ly3, OCI-Ly10, U2932, RIVA, BJAB, Su-DHL-4, Su-DHL-6)
T1 sequence (Q9UDY8 1-824): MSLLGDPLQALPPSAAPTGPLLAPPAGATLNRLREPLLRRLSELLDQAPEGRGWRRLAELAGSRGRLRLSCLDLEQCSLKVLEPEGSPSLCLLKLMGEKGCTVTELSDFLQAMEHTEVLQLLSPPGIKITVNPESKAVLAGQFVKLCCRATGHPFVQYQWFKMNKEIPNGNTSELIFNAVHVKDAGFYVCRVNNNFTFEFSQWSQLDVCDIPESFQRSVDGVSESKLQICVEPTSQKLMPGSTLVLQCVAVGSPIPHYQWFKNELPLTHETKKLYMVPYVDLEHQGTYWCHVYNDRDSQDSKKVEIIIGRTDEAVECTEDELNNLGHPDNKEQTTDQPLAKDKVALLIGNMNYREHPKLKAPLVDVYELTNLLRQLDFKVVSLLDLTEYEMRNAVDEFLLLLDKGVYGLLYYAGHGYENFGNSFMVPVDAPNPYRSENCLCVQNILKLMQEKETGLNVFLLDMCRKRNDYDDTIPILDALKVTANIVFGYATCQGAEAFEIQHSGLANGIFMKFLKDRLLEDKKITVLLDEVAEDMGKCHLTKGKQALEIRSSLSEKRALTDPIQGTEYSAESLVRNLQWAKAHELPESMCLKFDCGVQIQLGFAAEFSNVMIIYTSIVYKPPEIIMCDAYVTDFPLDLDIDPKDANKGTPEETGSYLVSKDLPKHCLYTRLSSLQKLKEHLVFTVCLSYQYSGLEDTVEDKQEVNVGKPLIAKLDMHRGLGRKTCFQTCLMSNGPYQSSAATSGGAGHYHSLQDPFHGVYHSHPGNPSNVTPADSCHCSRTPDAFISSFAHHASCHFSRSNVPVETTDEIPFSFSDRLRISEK
Experiment: MALT1 ELASA in cryo-preserved patient DLBCL tumor samples
Conditions: 0.25 μM on lysed tumor tissue
Procedure: FIG. 10: A) Active MALT1 detection in cryo-preserved patient tumor samples. Frozen tumor tissue was lysed with a douncer and syringe, incubated with z-VRPR-FMK (0.25 μM) (SEQ ID No. 6) or left untreated before MALT1 activity read-out as above. Relative MALT1 activity from each untreated and z-VRPR-FMK (SEQ ID No. 6) treated samples was measured and directly compared (ABC DLBCL n=8; GCB DLBCL n=7). Significance for MALT1 activity in untreated to z-VRPR-FMK (SEQ ID No. 6) treated samples was calculated by a two-tailed t-test (**<0.005). B) Oncogenic CARMA1 is sufficient to trigger MALT1 activation. BJAB transduced with CARMA1 WT or L244P (ABC derived) or L225PI (GCB derived) were lysed and treated with z-VRPR-FMK (SEQ ID No. 6) and analyzed as above. Results and SD from three independent experiments are shown. MALT1 activity is depicted as arbitrary units [AU].
Untreated DLBCL (1×10^7), primary T cells (0.25×10^7) or Jurkat T cells (0.2-1×10^7) (stimulated or not) were lysed in 300 μl co-IP buffer without protease inhibitors, centrifuged, incubated with probe 7 (concentration as depicted) for 1 h at RT, then transferred to streptavidin-coated plates (96 well, clear) and incubated o/n at 4° C. […] was determined after TMB substrate incubation in a photometer (Bio-Tek). […]

z-VRPR-FMK (Z N-terminal cap, FMK warhead)
samples with reduction in MALT1 activity, GCB DLBCL (7 GCB DLBCL biopsies): one out of seven
samples with reduction in MALT1 activity, ABC DLBCL (8 ABC DLBCL biopsies): five out of eight
